Source: the Human Domainome abundance scans (Beltran et al. 2025)
± gives the uncertainty stated by the source.

B1: COUP transcription factor 1, residues 83 to 159; numbered along this chain, P10589 (parent)
chain: HIECVVCGDKSSGKHYGQFTCEGCKSFFKRSVRRNLTYTCRANRNCPIDQHHRNQCQYCRLKKCLKVGMRREAVQRG

Variants of: B1
Test: abundance fitness (aPCA) (normalised: wild type 0, dead -1); higher = more abundant; growth selection in yeast, the domain comes from the species named
Settings: Homo sapiens
With Q75H the abundance fitness was 0.222 ± 0.071. Q75N gave an abundance fitness of -0.115 ± 0.083. In the case of Q75K, the abundance fitness is reported as -0.071 ± 0.052. With Q75R the abundance fitness was -0.159 ± 0.034. Q75E gave an abundance fitness of 0.104 ± 0.04. For Q75M, the abundance fitness was -0.114 ± 0.052. Variant Q75L has an abundance fitness of -0.007 ± 0.036. In the case of Q75D, the abundance fitness is reported as 0.211 ± 0.054. Q75P gave an abundance fitness of 0.034 ± 0.058. Work on E72W yielded an abundance fitness of -0.248 ± 0.05. In the case of E72T, the abundance fitness is reported as -0.283 ± 0.056. E72A gave an abundance fitness of -0.237 ± 0.048. With E72F the abundance fitness was -0.316 ± 0.078. E72I gave an abundance fitness of -0.325 ± 0.085. E72G showed an abundance fitness of -0.258 ± 0.038. Work on E72Y yielded an abundance fitness of -0.177 ± 0.078. For E72L, the abundance fitness was -0.317 ± 0.044. Work on E72P yielded an abundance fitness of -0.418 ± 0.076. Work on E72Q yielded an abundance fitness of -0.319 ± 0.055. With E72S the abundance fitness was -0.252 ± 0.044. With E72M the abundance fitness was -0.262 ± 0.052. In the case of E72C, the abundance fitness is reported as -0.337 ± 0.064. In the case of E72D, the abundance fitness is reported as -0.002 ± 0.06. M69W gave an abundance fitness of -0.629 ± 0.057. Variant M69S has an abundance fitness of -0.783 ± 0.079. Work on M69T yielded an abundance fitness of -0.719 ± 0.095. M69Y gave an abundance fitness of -0.77 ± 0.16. M69R gave an abundance fitness of -0.737 ± 0.058. G77E gave an abundance fitness of 0.06 ± 0.1. G77Q showed an abundance fitness of 0.304 ± 0.075. Variant G77C has an abundance fitness of -0.096 ± 0.069. G77L showed an abundance fitness of -0.095 ± 0.064. Work on G77S yielded an abundance fitness of 0.064 ± 0.052. G77M gave an abundance fitness of -0.017 ± 0.12. Variant G77I has an abundance fitness of -0.042 ± 0.11. Variant G77K has an abundance fitness of 0.101 ± 0.14. Work on G77Y yielded an abundance fitness of -0.257 ± 0.14. For G77D, the abundance fitness was 0.117 ± 0.093. For G77R, the abundance fitness was -0.058 ± 0.046. G77A showed an abundance fitness of 0.12 ± 0.061. For G77N, the abundance fitness was -0.023 ± 0.093. For G77P, the abundance fitness was -0.013 ± 0.071. With G77W the abundance fitness was -0.23 ± 0.074. In the case of G77F, the abundance fitness is reported as -0.317 ± 0.18. Variant G77H has an abundance fitness of -0.004 ± 0.13. With G77V the abundance fitness was -0.041 ± 0.043. With G77T the abundance fitness was -0.016 ± 0.07. Variant R70Q has an abundance fitness of 0.112 ± 0.053. With R70H the abundance fitness was -0.004 ± 0.085. R70L gave an abundance fitness of 0.07 ± 0.056. Work on R70T yielded an abundance fitness of 0.023 ± 0.048. Variant R70S has an abundance fitness of 0.144 ± 0.039. Variant R70V has an abundance fitness of 0.032 ± 0.056. R70M gave an abundance fitness of 0.173 ± 0.095. R70G showed an abundance fitness of -0.152 ± 0.033. In the case of R70E, the abundance fitness is reported as 0.135 ± 0.038. In the case of R70P, the abundance fitness is reported as -0.161 ± 0.061. R70I gave an abundance fitness of 0.046 ± 0.16. In the case of R70A, the abundance fitness is reported as 0.023 ± 0.038. R70K showed an abundance fitness of 0.153 ± 0.05. R70Y gave an abundance fitness of -0.323 ± 0.12. With R70N the abundance fitness was 0.071 ± 0.092. R70D showed an abundance fitness of 0.163 ± 0.052. R70F showed an abundance fitness of 0.002 ± 0.12. R70C gave an abundance fitness of -0.051 ± 0.067. With V74I the abundance fitness was -0.292 ± 0.072. Work on V74A yielded an abundance fitness of 0.028 ± 0.041. With V74D the abundance fitness was -0.065 ± 0.056. V74C gave an abundance fitness of -0.032 ± 0.052. Work on V74Q yielded an abundance fitness of -0.063 ± 0.048. With V74E the abundance fitness was -0.004 ± 0.042. For V74P, the abundance fitness was -0.151 ± 0.076. V74L gave an abundance fitness of -0.224 ± 0.04. For V74S, the abundance fitness was -0.199 ± 0.044. With V74Y the abundance fitness was -0.353 ± 0.079. V74N gave an abundance fitness of -0.061 ± 0.065. With V74K the abundance fitness was -0.264 ± 0.059. V74T showed an abundance fitness of -0.112 ± 0.053. V74R gave an abundance fitness of -0.449 ± 0.044. Work on V74W yielded an abundance fitness of -0.3 ± 0.057. In the case of V74F, the abundance fitness is reported as -0.175 ± 0.06. Work on V74G yielded an abundance fitness of -0.102 ± 0.034. V74M showed an abundance fitness of -0.185 ± 0.055. With V74H the abundance fitness was -0.104 ± 0.084.
